Results: patent publication US20100008928A1 (Takeda / Millennium, published 2010)
Numbering of substitutions follows the chain as printed. Blank lines part the entries; values can stand above or below the binder they belong to.

Tests used:
Assay in all cases: FCM
[1] = target: T1, human nectin-1 protein (human, UniProt Q15223 31-517)
T1 construct: transient in CHO-K1 from pCMV-Tag4-Nectin-1
T1 sequence: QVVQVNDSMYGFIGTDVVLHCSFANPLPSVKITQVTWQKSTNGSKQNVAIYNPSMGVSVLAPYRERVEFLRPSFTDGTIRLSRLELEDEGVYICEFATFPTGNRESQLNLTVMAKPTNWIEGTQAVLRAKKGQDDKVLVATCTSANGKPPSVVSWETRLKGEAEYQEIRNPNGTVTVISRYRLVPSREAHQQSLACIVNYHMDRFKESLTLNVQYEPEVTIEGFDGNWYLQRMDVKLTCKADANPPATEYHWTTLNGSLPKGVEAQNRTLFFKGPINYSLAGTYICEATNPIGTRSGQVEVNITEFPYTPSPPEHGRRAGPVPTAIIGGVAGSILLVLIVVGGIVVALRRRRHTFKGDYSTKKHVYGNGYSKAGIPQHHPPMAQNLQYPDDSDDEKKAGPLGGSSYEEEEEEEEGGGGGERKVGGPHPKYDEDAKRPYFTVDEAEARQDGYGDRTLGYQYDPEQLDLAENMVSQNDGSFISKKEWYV
Description: (§1) Specifically, CHO-K1 cell line was incubated in a T75 flask charged with a medium mixture of DMEM and F-12 in equivalent volumes (Invitrogen) supplmented with 10% FBS (JRH) at 37° C. for 1 to 2 days in a 5% carbon dioxide gas flow. […] Four hours after the transfection, the medium for the CHO-K1 cells was exchanged with a fresh aliquot of the medium described above, followed by incubation for further 2 days. These cells were washed twice with D-PBS, detached by Cell Dissociation Buffer, enzyme-free, PBS-based (Invitrogen) and resuspended in D-PBS (−) containing 1% FBS and 0.1% sodium azide (hereinafter referred to as FCM buffer) at a density of 5×10⁶ cells/mL. […] After 200 μL of FCM buffer was added to each well and washed once by centrifugal operation, 50 μL/well of Alexa488-labeled secondary antibody diluted in FCM buffer to 10 μg/mL was added for suspension, which was then reacted on ice for an hour.

[2] = target: T2, human Nec1-5 protein (human, UniProt P15151 21-417)
T2 construct: transient in CHO-K1 from pCMV-Tag4-Nec1-5; also called Necl-5
T2 sequence: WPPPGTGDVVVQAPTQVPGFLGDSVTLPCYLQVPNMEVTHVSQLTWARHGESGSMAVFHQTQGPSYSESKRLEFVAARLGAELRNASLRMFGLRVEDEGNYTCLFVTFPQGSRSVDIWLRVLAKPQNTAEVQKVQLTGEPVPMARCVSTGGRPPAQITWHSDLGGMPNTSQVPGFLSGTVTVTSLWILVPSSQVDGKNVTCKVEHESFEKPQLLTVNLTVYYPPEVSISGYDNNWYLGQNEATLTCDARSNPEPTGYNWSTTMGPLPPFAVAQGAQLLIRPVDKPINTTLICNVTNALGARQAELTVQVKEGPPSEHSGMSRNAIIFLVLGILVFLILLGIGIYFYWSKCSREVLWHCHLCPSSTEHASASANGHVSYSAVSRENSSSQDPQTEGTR
Description: as §1

[3] = target: T3, human nectin-4 protein (human, UniProt Q96NY8 32-510)
T3 construct: transient in CHO-K1 from pCMV-Tag4-Nectin-4
T3 sequence: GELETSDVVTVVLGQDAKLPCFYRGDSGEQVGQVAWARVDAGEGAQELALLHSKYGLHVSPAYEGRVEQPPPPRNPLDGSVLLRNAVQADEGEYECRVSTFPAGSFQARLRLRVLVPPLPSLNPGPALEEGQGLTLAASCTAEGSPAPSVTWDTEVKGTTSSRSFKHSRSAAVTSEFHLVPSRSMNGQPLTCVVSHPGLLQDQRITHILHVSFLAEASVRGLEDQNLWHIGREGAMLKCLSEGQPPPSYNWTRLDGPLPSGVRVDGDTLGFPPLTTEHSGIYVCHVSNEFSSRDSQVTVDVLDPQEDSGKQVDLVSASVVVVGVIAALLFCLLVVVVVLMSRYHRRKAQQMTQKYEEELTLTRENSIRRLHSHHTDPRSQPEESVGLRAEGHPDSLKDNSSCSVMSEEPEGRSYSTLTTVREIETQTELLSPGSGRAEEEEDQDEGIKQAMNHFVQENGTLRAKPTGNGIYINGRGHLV
Description: as §1

[4] = target: T4, nectin-2 Ig1 domain-deficient protein (human, UniProt Q92692 32-538)
T4 construct: transient in CHO-K1; also called delta-Ig1; Nectin-2ΔIg1
T4 sequence: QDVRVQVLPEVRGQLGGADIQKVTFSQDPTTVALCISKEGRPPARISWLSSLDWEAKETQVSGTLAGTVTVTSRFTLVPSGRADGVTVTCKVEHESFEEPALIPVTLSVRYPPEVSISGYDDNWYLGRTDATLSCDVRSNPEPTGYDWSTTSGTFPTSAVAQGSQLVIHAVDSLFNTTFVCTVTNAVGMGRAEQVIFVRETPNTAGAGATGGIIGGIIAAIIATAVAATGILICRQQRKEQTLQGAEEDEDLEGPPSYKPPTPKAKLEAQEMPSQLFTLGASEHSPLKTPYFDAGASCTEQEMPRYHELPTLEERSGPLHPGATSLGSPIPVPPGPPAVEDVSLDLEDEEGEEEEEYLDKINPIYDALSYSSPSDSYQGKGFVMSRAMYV
Description: (§2) After 200 μL of FCM buffer was added to each well and washed once by centrifugal operation, 50 μL each of Alexa488-labeled secondary antibody diluted in FCM buffer to 10 μg/mL was added to and mixed therewith, and the mixture was then reacted on ice for an hour. The Alexa488-labeled secondary antibody used was Alexa Fluor488 goat anti-human IgG (H+L) for the human antibodies and Alexa Fluor488 goat anti-rabbit IgG (H+L) (Invitrogen) for the rabbit antibody. The cells in each well were washed twice with FCM buffer and then resuspended in 250 μL of FCM buffer. Using the flow cytometer MPL500 (BECKMAN COULTER), the fluorescence intensity of stained cells was measured to determine the ratio of the median value of fluorescence intensities of the respective antibodies in the primary antibody group to the median value of fluorescence intensities in the negative control group.

[5] = target: T5, nectin-2 Ig2 domain-deficient protein (human, UniProt Q92692 32-538)
T5 construct: transient in CHO-K1; also called delta-Ig2; Nectin-2ΔIg2
T5 sequence: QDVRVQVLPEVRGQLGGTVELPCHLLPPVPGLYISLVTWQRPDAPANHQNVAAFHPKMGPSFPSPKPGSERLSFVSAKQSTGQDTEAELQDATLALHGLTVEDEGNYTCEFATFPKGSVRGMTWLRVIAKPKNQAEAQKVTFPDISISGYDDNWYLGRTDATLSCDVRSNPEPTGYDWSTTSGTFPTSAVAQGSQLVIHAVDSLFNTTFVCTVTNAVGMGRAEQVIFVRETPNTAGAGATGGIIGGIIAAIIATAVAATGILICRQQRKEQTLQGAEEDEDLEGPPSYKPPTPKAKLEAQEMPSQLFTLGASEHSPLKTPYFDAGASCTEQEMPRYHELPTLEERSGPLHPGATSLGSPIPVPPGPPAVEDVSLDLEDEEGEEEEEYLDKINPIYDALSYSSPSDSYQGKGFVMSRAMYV
Description: as §2

binding result [1]: no binding (tested: 6 µg/mL) | binding result [2]: no binding (tested: 6 µg/mL) | binding result [3]: no binding (tested: 6 µg/mL)
B1: Nec1-803-2 (antibody, human IgG1, V domains shown)
VH: QVQLQESGPGLVKPSETLSLTCTVSGGSISSYYWTWIRQPPGKGLEWIGYIYYSGSTNSNPSLKSRVTISVDTSKNQFSLKLSSVTAADTAVYYCTRDPGEDYNYGMDVWGQGTTVTVSS
VL: AIQLTQSPSSLSASVGDRVTITCRASQGISSALAWYQQKPGKAPKLLIYDASSLESGVPSRFSGSGSGTDFTLTISSLQPEDFATYYCQQFNSYPRTFGQGTKVEIK

binding result [1]: no binding (tested: 6 µg/mL) | binding result [2]: no binding (tested: 6 µg/mL) | binding result [3]: no binding (tested: 6 µg/mL)
B2: Nec1-834-1 (antibody, human IgG1, V domains shown)
VH: B1 VH with G26S, G27A, T35S, S59Y, V71I, T96A, P99A, N104S
VL: AIQLTQSPSSLSASVGDRVTITCRASQGISSALAWYQQKPGKAPKLLIYDASSLESGVPSRFSGSGSGTDFTLTISSLQPEDFATYYCQQFNSYRTFGQGTKVEIK
notes: human IgG1/k from hybridoma FERM BP-10428

median fluorescence ratio [4]: 4.3
B3: Nec1-554-1 SP3 (antibody, V domains shown)
VH: EVQLVESGGGLVKPGGSLRLSCAASGFTFSSYNMNWVRQAPGKGLEWVSSISSSSSYIYYADSVKGRFTISRDNAKNSLYLQMNSLRAEDTAVYYCARDYYGSGTYYLFDYWGQGTLVTVSS
VL: EIVLTQSPDFQSVTPKEKVTITCRASQSIGSSLHWYQQKPDQSPKLLIKYASQSFSGVPSRFSGSGSGTDFTLTINSLEAEDAAAYYCHQSRSLPITFGQGTRLEIK
notes: also called antibody fraction (SP3)
binding result [5]: no binding (tested: ratio <2 = no reactivity; 6 µg/mL)
